# Results taken from paper PMC4739419, “Mutations in the nucleotide binding and hydrolysis domains of Helicobacter pylori MutS2 lead to altered biochemical activities and inactivation of its in vivo function” (BMC Microbiology, 2016).
# Numbering of substitutions follows the chain as printed. In names and notes the source's numbering stands. Read-outs that look alike come from different tables or passages of the source.
# B1: HpMutS2-E413A (enzyme)
# chain: MSDAPKRSLNPTLMMNNNNTPPKPLEESLDLKEFIALFKTFFAKERDTIALENDLKQTFTYLNEVDAIGLPTPKSVKESDLIIIKLTKLGTLHLDEIFEIVKRLHYIVVLQNAFKTFTHLKFHERLNAIVLPPFFNDLIALFDDEGKIKQGANATLDALNESLNRLKKESVKIIHHYARSKELAPYLVDTQSHLKHGYECLLLKSGFSGAIKGVVLERSANGYFYLLPESAQKIAQKIAQIGNEIDCCIVEMCQTLSHSLQKHLLFLKFLFKEFDFLDSLQARLNFAKAYNLEFVMPSFTQKKMILENFSHPILKEPKPLNLKFEKSMLAVTGVNAGGKTMLLKSLLSAAFLSKHLIPMKINAHHSIIPYFKEIHAIINDPQNSANNISTFAGRMKQFSALLSKENMLLGVDAIELGTDADEASSLYKTLLEKLLKQNNQIIITTHHKRLSVLMAENKEVELLAALYDEEKERPTYTFLKGVIGKSYAFETALRYGVPHFLIEKAKTFYGEDKEKLNVLIENSSALERELKQKNEHLENALKEQEYLKNAWLLEMEKQKEIFHNKKLELEKSYQQALNILKSEVASKDTSSMHKEIHKASEILSKHKTNQEIPQIITNFQANEKARYKNESVLIVQILDKGYYWIETELGMRLKAHGSLLKKIQKPPKNKFKPPKTTIPKPKEASLRLDLRGQRSEEALDLLDAFLNDALLGGFEEVLICHGKGSGILEKFVKEFLKNHPKVVSFSDAPINLGGSGVKIVKL
# notes: also called Walker-B mutant
# B2: HpMutS2-G338R (protein)
# chain: B1 chain with G338R, A413E
# B3: HpMutS2: Helicobacter pylori MutS2 (1-762), C-terminally His6-tagged wild-type protein, nuclease and ABC ATPase (protein)
# chain: B1 chain with A413E
# modifications: left off: His6, C-terminal, state not stated
# notes: Helicobacter pylori MutS2 (1-762), C-terminally His6-tagged wild-type protein, nuclease and ABC ATPase
# Assays:
# Holliday junction [1] = test: Nuclease assay (urea-PAGE); assay type: biochemical; settings: for DNA cleavage rate: No nucleotide, DNA 1 nM, protein 150 nM, 37 °C
# Protocol: (§1) Fig. 6 Effect of nucleotide cofactors on nuclease activity of HpMutS2 and mutants. Plots showing time dependent depletion of substrate DNA (a, b, c) Single-stranded DNA and d, e, f Holliday junction. DNA substrates (1 nM) were incubated with HpMutS2 and mutants (150 nM) at 37 °C. Reactions aliquots were removed at 0, 15, 30, 60, 90, and 120 min. The reactions were stopped using (50 mM EDTA + formamide dye) and the products were electrophoresed on urea-PAGE (15 %). The percentage reduction in substrate was calculated by considering DNA without protein as 100 %. Error bars represent standard deviation from two or more different experiments. (g, panel 1–6) Time dependent cleavage of Holliday junction by HpMutS2 and mutants. Reactions were performed as described in (A-F). Reactions aliquots were removed at 0, 15, 30, 60, 90, and 120 min
# (§2) Radiolabeled DNA substrates were incubated with HpMutS2 and mutants in buffer D (50 mM Tris pH 8.0, 50 mM NaCl, 1 mM DTT, and 5 mM MgCl2). ATP, ADP, and ATPγS (1 mM each) were added separately to the reaction mixtures. 20 μl reaction aliquots were reomoved at 0, 15, 30, 60, 90, and 120 min. Reactions were stopped by adding EDTA (50 mM) + formammide dye (98 % formamide, 0.1 % bromophenol blue and 0.1 % xylene cyanol). The DNA substrates were denatured at 95 °C for 15 min and the reaction mixtures were separated on denaturing polyacrylamide gel (15 %) containing urea (7 M). The results were visualized and analysed as described earlier. DNA cleavage rates were estimated by dividing the total product formed (pM) in linear range of enzymatic activity by corresponding incubation time (min).
# Single-stranded DNA [2] = test: Nuclease assay (urea-PAGE); assay type: biochemical; settings: for DNA cleavage rate: No nucleotide, DNA 1 nM, protein 150 nM, 37 °C
# Protocol: as §1, §2
# H. pylori strain 26695 = test: Recombination assay (incorporation of streptomycin resistant chromosomal DNA); assay type: cell-based, Helicobacter pylori; settings: for fold higher recombination / transformation frequency than the wild-type strain: HpMutS2-E413A over-expressed in the wild-type strain
# Protocol: The construction of hpmutS2-disrupted strain, complements, and calculations of recombination frequencies were performed as described in [7]. Briefly, H. pylori strain 26695 was used to disrupt hpmutS2 gene by allelic replacement using a chloramphenicol resistance cassette and to generate integrations. The wild-type and mutants of HpMutS2 preceded by ureA promoter and containing an apramycin resistance cassette were integrated into a non-essential ureA locus. The correct constructions were verified by PCR and the expression of proteins was monitored by Western blots. Recombination frequencies were determined by rate of incorporation of streptomycin resistant isogenic total chromosomal DNA (200 ng) per cfu. P values were calculated using the Mann–Whitney U test. At least two independent clones of each construction were used to determine the recombination frequencies. All DNA constructs were introduced using natural transformation. H. pylori was grown on BAB plates at 37 °C under microaerophillic conditions.
# [3] = Far-UV circular dichroism spectroscopy; assay type: physicochemical; settings: protein 1 μM, far-UV CD 200–300 nm
# Protocol: Fig. 3 Mutation induced conformational changes in HpMutS2. a CD-spectroscopy of HpMutS2, HpMutS2-G338R, and HpMutS2-E413A. Far-UV CD spectra of proteins (1 μM) dialyzed in 50 mM Tris-Cl and 100 mM NaCl were recorded between 200–300 nm with 20 mdeg sensitivity at a scan speed of 50 nm using 2 mm path length cuvette with a bandwidth of 2 nm. The spectra were recorded using Jasco-815 spectropolarimeter. Size exclusion chromatographic analysis of b HpMutS2, c HpMutS2-G338R, and d HpMutS2-E413A was performed using Superose-6 gel filtration column at a constant flow rate of 0.3 ml/min. Approximately 150 μg of all the proteins were spun at 10,000 rpm for 10 min at 4 °C before injection. The absorbance was recorded at 280 nm
# Freshly prepared proteins were dialyzed twice in buffer B for 4–6 h with at least two changes of the buffer. Far-UV CD spectra of proteins (1 μM) were obtained using a Jasco-815 spectropolarimeter equipped with a Peltier stage (Japan Spectroscopic Co., Japan) at 25 °C. The spectra were recorded between 200–300 nm with 20 mdeg sensitivity at a scan speed of 50 nm using 2 mm path length cuvette with a bandwidth of 2 nm. […] Thermal denaturation of the proteins was monitored at single wavelength (222 nm) by increasing temperature from 25 °C-80 °C. The percentage of unfolded protein was calculated by considering the protein at 25 °C as 100 % folded.
# Holliday junction [4] = test: Electrophoretic mobility shift assay (EMSA); assay type: binding; settings: for Kd: read-out: DNA binding affinity (dissociation constant); for fold reduced affinity compared to wild-type: no nucleotide
# Protocol: (§3) Fig. 5 Effect of nucleotide cofactors on DNA binding activity of HpMutS2 and mutants. Electrophoretic mobility shift assays were performed by incubating radiolabeled DNA substrates (0.16 nM) with increasing concentrations of proteins as described in Methods section. Nucleotides (1 mM) were added separately to the reaction mixtures. After incubation of 30 min on ice, the reaction mixtures were electrophoresed on native PAGE (8 %) at 4 °C. (a, panel 1–6) Interaction of HpMutS2 and mutants with single-stranded DNA. b-g Plots of percentage of bound DNA substrate (ssDNA and Holliday junction) versus protein concentration. The percentage binding was calculated by measuring the depletion in substrate DNA considering DNA without protein as 100 %. Error bars represent standard deviation from two or more different experiments. Schematic representation of DNA substrates used are shown at the left side of figures
# (§4) Radiolabeled DNA substrates (0.16 nM) were incubated with increasing concentrations of HpMutS2 and mutants in buffer A with 1X BSA (0.1 μg/μl). ATP, ADP, and ATPγS (1 mM each) were added separately to the reaction mixture. The NaCl concentration was maintained to 110 mM by adding storage buffer C to the reaction mixture. After incubation of 30 min on ice, the reaction mixtures were electrophoresed on native PAGE (8 %) at 4 °C. The gels were transferred on to Whatman 3 mm paper and dried under vacuum at 80 °C for 45 min. The gels were visualized by phosphorimaging and quantified using Image Gauge (Version 3.0). The dissociation constants were determined by non-linear regression analysis and calculated by plotting the percentage of bound DNA versus concentration of protein using “One site - Specific binding with Hill slope” equation of the GraphPad Prism 5 software.
# Single-stranded DNA [5] = test: Electrophoretic mobility shift assay (EMSA); assay type: binding; settings: for fold reduced affinity compared to wild-type: no nucleotide; for Kd: read-out: DNA binding affinity (dissociation constant)
# Protocol: as §3, §4
Molecule,DNA cleavage rate (Holliday junction [1]),DNA cleavage rate (Single-stranded DNA [2]),fold higher recombination / transformation frequency than the wild-type strain (H. pylori strain 26695),reduced negative ellipticity compared to the wild-type protein [3],Kd (Holliday junction [4]; + ADP 1 mM),Kd (Holliday junction [4]; + ATP 1 mM),Kd (Holliday junction [4]; No nucleotide),fold reduced affinity compared to wild-type (Holliday junction [4]),fold reduced affinity compared to wild-type (Single-stranded DNA [5]),Kd (Single-stranded DNA [5]; + ADP 1 mM),Kd (Single-stranded DNA [5]; No nucleotide),further results
B1,4.92 ± 1.25 pM/min,6.50 ± 0.55 pM/min,~ 5 fold,30–34%,46.4 ± 5.6 nM,31.7 ± 3.34 nM,30.8 ± 1.97 nM,~ 2 fold,> 4 fold,,,fold reduced nuclease activity compared to wild-type (Holliday junction [1]; no nucleotide): ~ 4 fold; fold reduced nuclease activity compared to wild-type (Single-stranded DNA [2]; no nucleotide): ~ 4 fold
B2,41.59 ± 9.53 pM/min,40.19 ± 8.73 pM/min,,no significant changes,34 ± 5.31 nM,32 ± 4.34 nM,21.4 ± 0.93 nM,~ 1.5 fold,~ 1.5 fold,23.9 ± 2.91 nM,32.4 ± 3.32 nM,fold elevated nuclease activity compared to wild-type (Holliday junction [1]; no nucleotide): ~ 1.6 fold; fold elevated nuclease activity compared to wild-type (Single-stranded DNA [2]; no nucleotide): ~ 1.6 fold; Kd (Single-stranded DNA [5]; + ATP 1 mM): 30.7 ± 3.43 nM
B3,26.49 ± 3.95 pM/min,24.82 ± 1.15 pM/min,~ 8 fold,,22.6 ± 1.39 nM,20.8 ± 2.95 nM,14.4 ± 0.82 nM,,,17.3 ± 2.89 nM,21.5 ± 2.28 nM,"fold reduction of Holliday junction cleavage rate by ADP (Holliday junction [1]; ADP 1 mM vs no nucleotide): ~ 1.5 fold; fold reduction of Holliday junction cleavage activity in presence of ADP compared to ATP (Holliday junction [1]; ADP vs ATP, 1 mM): ~ 2.1 fold; fold stimulation of Holliday junction cleavage rate by ATP (Holliday junction [1]; ATP 1 mM vs no nucleotide): ~ 1.5 fold; fold reduced nuclease activity in presence of ATPγS (Holliday junction [1]; ATPγS 1 mM vs no nucleotide): ~ 1.5 fold; Relative value (recombinant frequency relative to Wt) (H. pylori strain 26695; Wt = 1): 7.9; Recombinant frequency (H. pylori strain 26695; streptomycin resistance colonies per recipient cfu, average (±standard deviation)): 39.2 (±29.2) x10^−4; Kd (Holliday junction [4]; + ATPγS 1 mM): 22.5 ± 1.23 nM; Kd (Single-stranded DNA [5]; + ATPγS 1 mM): 11.4 ± 0.19 nM; fold reduced ssDNA binding in presence of ATP (Single-stranded DNA [5]; ATP 1 mM, at lower concentrations of protein): ~ 5 fold"
